Laboratory results taken from publication PMC11960969, “Mdga2 deficiency leads to an aberrant activation of BDNF/TrkB signaling that underlies autism-relevant synaptic and behavioral changes in mice” (PLOS Biology, 2025).

B1: MDGA2-ΔM1: MDGA2 lacking the N-terminal region (aa 746–833) of MAM domain (protein)
chain: PPTVRIVHSGLACNIEEERYSERVYTIREGETLELTCLVTGHPRPQIRWTKTAGSASDRFQDSSVFNETLRITNIQRHQGGRYYCKAENGLGSPAIKSIRVDVYYLDDPVVTVHQSIGEAKEQFYYERTVFLRCVANSNPPVRYSWRRGQEVLLQGSDKGVEIYEPFFTQGETKILKLKNLRPQDYANYSCIASVRNVCNIPDKMVSFRLSNKTASPSIKLLVDDPIVVNPGEAITLVCVTTGGEPAPSLTWVRSFGTLPEKTVLNGGTLTIPAITSDDAGTYSCIANNNVGNPAKKSTNIIVRALKKGRFWITPDPYHKDDNIQIGREVKISCQVEAVPSEELTFSWFKNGRPLRSSERMVITQTDPDVSPGTTNLDIIDLKFTDFGTYTCVASLKGGGISDISIDVNISSSTVPPNLTVPQEKSPLVTREGDTIELQCQVTGKPKPIILWSRADKEVAMPDGSMQMESYDGTLRIVNVSREMSGMYRCQTSQYNGFNVKPREALVQLIVQYPPAVEPAFLEIRQGQDRSVTMSCRVLRAYPIRVLTYEWRLGNKLLRTGQFDSQEYTEYAVKSLSNENYGVYNCSIINEAGAGRCSFLVTGKAYAPEFYYDTYNPVWQNRHRVYSYSLQWTQMNPDAVDRIVAYRLGIRQAGQQRWWEQEIKINGNIQKGELITYNLTELIKPEAYEVRLTPLTKFGEGDSTIRVIKYSAPVNPHLREAYCFSFFYHMYGQHIGVLNVYLRLKGQTTIENPLWSSSGNKGQRWNEAHVNIYPITSFQLIFEGIRGPGIEGDIAIDDVSIAEGECAKQDLATKNSVD
modifications: left off: GFP, end not stated, kept
notes: MDGA2 lacking the N-terminal region (aa 746–833) of MAM domain
B2: sp¦P97333¦NRP1_MOUSE (protein, UniProt P97333 22-923, looked up)
Neuropilin-1: FRSDKCGGTIKIENPGYLTSPGYPHSYHPSEKCEWLIQAPEPYQRIMINFNPHFDLEDRDCKYDYVEVIDGENEGGRLWGKFCGKIAPSPVVSSGPFLFIKFVSDYETHGAGFSIRYEIFKRGPECSQNYTAPTGVIKSPGFPEKYPNSLECTYIIFAPKMSEIILEFESFDLEQDSNPPGGMFCRYDRLEIWDGFPEVGPHIGRYCGQKTPGRIRSSSGVLSMVFYTDSAIAKEGFSANYSVLQSSISEDFKCMEALGMESGEIHSDQITASSQYGTNWSVERSRLNYPENGWTPGEDSYKEWIQVDLGLLRFVTAVGTQGAISKETKKKYYVKTYRVDISSNGEDWISLKEGNKAIIFQGNTNPTDVVLGVFSKPLITRFVRIKPVSWETGISMRFEVYGCKITDYPCSGMLGMVSGLISDSQITASNQADRNWMPENIRLVTSRTGWALPPSPHPYTNEWLQVDLGDEKIVRGVIIQGGKHRENKVFMRKFKIAYSNNGSDWKTIMDDSKRKAKSFEGNNNYDTPELRTFSPLSTRFIRIYPERATHSGLGLRMELLGCEVEAPTAGPTTPNGNPVDECDDDQANCHSGTGDDFQLTGGTTVLATEKPTIIDSTIQSEFPTYGFNCEFGWGSHKTFCHWEHDSHAQLRWSVLTSKTGPIQDHTGDGNFIYSQADENQKGKVARLVSPVVYSQSSAHCMTFWYHMSGSHVGTLRVKLRYQKPEEYDQLVWMVVGHQGDHWKEGRVLLHKSLKLYQVIFEGEIGKGNLGGIAVDDISINNHISQEDCAKPTDLDKKNTEIKIDETGSTPGYEGEGEGDKNISRKPGNVLKTLDPILITIIAMSALGVLLGAVCGVVLYCACWHNGMSERNLSALENYNFELVDGVKLKKDKLNPQSNYSEA
B3: MDGA2-ΔM2: MDGA2 lacking the C-terminal region (aa 834–921) of MAM domain (protein)
chain: PPTVRIVHSGLACNIEEERYSERVYTIREGETLELTCLVTGHPRPQIRWTKTAGSASDRFQDSSVFNETLRITNIQRHQGGRYYCKAENGLGSPAIKSIRVDVYYLDDPVVTVHQSIGEAKEQFYYERTVFLRCVANSNPPVRYSWRRGQEVLLQGSDKGVEIYEPFFTQGETKILKLKNLRPQDYANYSCIASVRNVCNIPDKMVSFRLSNKTASPSIKLLVDDPIVVNPGEAITLVCVTTGGEPAPSLTWVRSFGTLPEKTVLNGGTLTIPAITSDDAGTYSCIANNNVGNPAKKSTNIIVRALKKGRFWITPDPYHKDDNIQIGREVKISCQVEAVPSEELTFSWFKNGRPLRSSERMVITQTDPDVSPGTTNLDIIDLKFTDFGTYTCVASLKGGGISDISIDVNISSSTVPPNLTVPQEKSPLVTREGDTIELQCQVTGKPKPIILWSRADKEVAMPDGSMQMESYDGTLRIVNVSREMSGMYRCQTSQYNGFNVKPREALVQLIVQYPPAVEPAFLEIRQGQDRSVTMSCRVLRAYPIRVLTYEWRLGNKLLRTGQFDSQEYTEYAVKSLSNENYGVYNCSIINEAGAGRCSFLVTGKAYAPEFYYDTYNPVWQNRHRVYSYSLQWTQMNPDAVDRIVAYRLGIRQAGQQRWWEQEIKINGNIQKGELITYNLTELIKPEAYEVRLTPLTKFGEGDSTIRVIKYSAPVNPHLREFHCGFEDGNICLFTQDDTDNFDWTKQSTATRNTKYTPNTGPNADRSGSKEGFYMYIETSRPRLEGEKARLLSPVFSIAPKNPYGPTNTQDLATKNSVD
modifications: left off: GFP, end not stated, kept
notes: MDGA2 lacking the C-terminal region (aa 834–921) of MAM domain

What was measured:
[1] = tested on: TrkB (TrkB-Flag); experiment: Co-IP of MDGA2 and its truncations with TrkB-Flag in HEK293T cells; format: binding, human; conditions: HEK293T cells co-transfected with TrkB-Flag and GFP-tagged MDGA2 constructs
Method: Fig 3 MDGA2 interacts with TrkB and suppresses TrkB activity. (A) Primary hippocampal neurons derived from Mdga2^ +/− (Het) mice and their wild-type (WT) littermates at DIV 7 were treated with different doses of BDNF for 30 min. Equal amounts of protein lysates were subjected to immunoprecipitation (IP) with an anti-TrkB antibody, followed by immunoblotting with an anti-phosphotyrosine (pTyr) antibody or the anti-TrkB antibody. The pTyr levels were quantified by densitometry, normalized to total TrkB levels, and then compared to those of WT controls. n = 3 per group. (B) WT mouse brain lysates were subjected to IP with an anti-MDGA2 antibody and a control IgG, and immunoblotted (IB) for the components indicated. mBDNF, mature BDNF; ImBDNF, immature BDNF. (C) Hippocampal neurons from WT mice at DIV 7 were immunostained with antibodies against MDGA2 (red) and TrkB (green), and then counter-stained with DAPI (blue). Images were acquired by a confocal microscope. Scale bar: 10 μm. (D) Surface plasmon resonance (SPR) analysis of the binding between recombinant MDGA2 protein and recombinant TrkB protein. TrkB was immobilized on a Biacore CM5 chip and tested for its binding with MDGA2 at the concentrations indicated. (E) Computer simulation of the binding mode of TrkB and MDGA2. The predicted binding domain of TrkB (the d5 domain) is highlighted by a red square and labeled in brown. The predicted binding domain of MDGA2 (the MAM domain) is highlighted by a red square and labeled in yellow. […] Immunoprecipitated TrkB levels were quantified by densitometry, normalized to input levels, and compared to respective controls (set to one arbitrary units). n = 3 per group. […] Levels of phosphorylated proteins were quantified by densitometry, normalized to respective total protein levels and compared to controls (set to one arbitrary units). n = 6 per group. […] P-values were determined by two-tailed unpaired Student t-test in (A) and one-way ANOVA with Tukey’s multiple comparisons test in (H, I, J). *p < 0.05, **p < 0.01, ***p < 0.001, ns: not significant. […]

[2] = tested on: hippocampal proteins; experiment: DIA quantification proteomics, hippocampus of Mdga2+/- vs WT mice; design: species or system mouse; conditions: S3 Table, downregulated DEPs
In short: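 Hippocampi from 1.5–2-month-old male Mdga2+/− mice and WT littermates; 100 μg protein trypsin-digested, peptides high-pH fractionated. DDA-built spectral library, DIA by nano-LC–MS/MS with Spectronaut and mProphet QC. DEPs called at fold change >1.1 and p <0.05.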

| Molecule | interaction with TrkB (Co-IP) [1] | log2FC ([2]; Mdga2+/- vs WT mouse hippocampus (HET-HIP-VS-WT-HIP), SE, pvalue and adj_pvalue in own columns c3-c5) | Class ([2]; regulation class of the protein, HET-HIP-VS-WT-HIP) |
| --- | --- | --- | --- |
| B1 | abolished the interaction between MDGA2 and TrkB | – | – |
| B2 | – | -3.13 | Down |
| B3 | not M2 abolished the interaction | – | – |
